Results published in PMC11417369, “DNA sequence and chromatin differentiate sequence-specific transcription factor binding in the human malaria parasite Plasmodium falciparum”.

T1: AP2-LT D1 (Plasmodium falciparum, UniProt Q8IAM1 2520-2577)
T1 sequence: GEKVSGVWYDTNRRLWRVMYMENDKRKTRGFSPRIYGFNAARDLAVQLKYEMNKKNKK

T2: AP2-G D1 (Plasmodium falciparum, UniProt Q8I5I9 2123-2245)
T2 sequence: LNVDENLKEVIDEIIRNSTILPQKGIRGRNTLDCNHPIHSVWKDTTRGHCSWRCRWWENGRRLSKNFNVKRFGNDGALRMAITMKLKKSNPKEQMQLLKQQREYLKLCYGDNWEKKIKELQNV

B1: CACACA_site6426 (dsDNA)
DNA 1: GGCATACACGAACACACACACACACGCACATATATA
DNA 2: TATATATGTGCGTGTGTGTGTGTGTTCGTGTATGCC
B2: CACACA_site7645 (dsDNA)
DNA 1: AAAAAAAATACATACACACACACACGCACATATATA
DNA 2: TATATATGTGCGTGTGTGTGTGTATGTATTTTTTTT
B3: CACACA_site3541 (dsDNA)
DNA 1: GGAATAACCAGACACACACACACATATATATATATA
DNA 2: TATATATATATATGTGTGTGTGTGTCTGGTTATTCC
B4: CACACA_site8012 (dsDNA)
DNA 1: ACATCAAGCAGACACACACACACACCCACCCACCCA
DNA 2: TGGGTGGGTGGGTGTGTGTGTGTGTCTGCTTGATGT
B5: CACACA_site2202 (dsDNA)
DNA 1: CGCACCCACAGACACACACACACATATATATATATA
DNA 2: TATATATATATATGTGTGTGTGTGTCTGTGGGTGCG
B6: CACACA_site5252 (dsDNA)
DNA 1: AACACGCGCGGACACACACACACACCCACATATATA
DNA 2: TATATATGTGGGTGTGTGTGTGTGTCCGCGCGTGTT
B7: CACACA_site6446 (dsDNA)
DNA 1: TACACGCATAGACACACACACACACGCATATAAATA
DNA 2: TATTTATATGCGTGTGTGTGTGTGTCTATGCGTGTA
B8: CACACA_site8067 (dsDNA)
DNA 1: AACAAATACAGACACACACACACACTAATAAAAAAA
DNA 2: TTTTTTTATTAGTGTGTGTGTGTGTCTGTATTTGTT
B9: CACACA_site2919 (dsDNA)
DNA 1: TACATACAGAAACACACACACACATATATATATATA
DNA 2: TATATATATATATGTGTGTGTGTGTTTCTGTATGTA
B10: CACACA_site8840 (dsDNA)
DNA 1: ATAAATAAAGGACACACACACACACTAATAAAAAAA
DNA 2: TTTTTTTATTAGTGTGTGTGTGTGTCCTTTATTTAT
B11: CACACA_site5248 (dsDNA)
DNA 1: CACAGACACGGACACACACACATATATATATATATA
DNA 2: TATATATATATATATGTGTGTGTGTCCGTGTCTGTG
B12: CACACA_site3394 (dsDNA)
DNA 1: AACAGACAGAAACACACACACATATATATATATATA
DNA 2: TATATATATATATATGTGTGTGTGTTTCTGTCTGTT
B13: CACACA_site5894 (dsDNA)
DNA 1: AAAAGGAACGGACACACACACATATATATATATATA
DNA 2: TATATATATATATATGTGTGTGTGTCCGTTCCTTTT
B14: CACACA_site5249 (dsDNA)
DNA 1: CGCACAGACGGACACACACACACATATATATATATA
DNA 2: TATATATATATATGTGTGTGTGTGTCCGTCTGTGCG
B15: CACACA_site5883 (dsDNA)
DNA 1: TACATACACGGACACACACACATATATATATATATA
DNA 2: TATATATATATATATGTGTGTGTGTCCGTGTATGTA
B16: XGTACX_negctrl_site541 (dsDNA)
DNA 1: TTGTCAAAAATTACACACATAAATGAATAAATAAAT
DNA 2: ATTTATTTATTCATTTATGTGTGTAATTTTTGACAA
B17: XGTACX_negctrl_site35 (dsDNA)
DNA 1: TTTTGACTAATATAATATGTTAAGAATTAATAAATA
DNA 2: TATTTATTAATTCTTAACATATTATATTAGTCAAAA
B18: XGTACX_negctrl_site591 (dsDNA)
DNA 1: TTTTTATATAACCTTCTTAATTCTTTTTTTTTTTTT
DNA 2: AAAAAAAAAAAAAGAATTAAGAAGGTTATATAAAAA
B19: XGTACX_negctrl_site385 (dsDNA)
DNA 1: TACTTCTCATTTGTTGTTGTATTTTAGGCATACCCT
DNA 2: AGGGTATGCCTAAAATACAACAACAAATGAGAAGTA
B20: XGTACX_negctrl_site59 (dsDNA)
DNA 1: AATATTACGTGTTTGGTATTTTTCGATGTTGGCAGG
DNA 2: CCTGCCAACATCGAAAAATACCAAACACGTAATATT
B21: XGTACX_negctrl_site521 (dsDNA)
DNA 1: ATGTTATAAATCTTAATATATATATGCAAAAGAGAA
DNA 2: TTCTCTTTTGCATATATATATTAAGATTTATAACAT
B22: XGTACX_negctrl_site604 (dsDNA)
DNA 1: ATAAATCGATAAAATATATGCTACATGAATAAATAA
DNA 2: TTATTTATTCATGTAGCATATATTTTATCGATTTAT
B23: XGTACX_negctrl_site369 (dsDNA)
DNA 1: TTTTTTTTTAATAAAATTATAATAAATATGAAATTA
DNA 2: TAATTTCATATTTATTATAATTTTATTAAAAAAAAA
B24: XGTACX_negctrl_site493 (dsDNA)
DNA 1: CATATATAAATATAAATATATATATATATATATATG
DNA 2: CATATATATATATATATATATTTATATTTATATATG
B25: XGTACX_negctrl_site191 (dsDNA)
DNA 1: TTTTTAAAAAATAAGAAAAAATAAATATATTACAAA
DNA 2: TTTGTAATATATTTATTTTTTCTTATTTTTTAAAAA
B26: XGTACX_negctrl_site580 (dsDNA)
DNA 1: ATACAAATTAAGCCTCAAGTTCTTTTTTTTAACATA
DNA 2: TATGTTAAAAAAAAGAACTTGAGGCTTAATTTGTAT
B27: XGTACX_negctrl_site394 (dsDNA)
DNA 1: AGGTGAAAAATATATAATAATGTAACAAAAAAAAAT
DNA 2: ATTTTTTTTTGTTACATTATTATATATTTTTCACCT
B28: XGTACX_negctrl_site451 (dsDNA)
DNA 1: AACAAATAAAAAAAAATAAAAATAAAAATAAAAAAA
DNA 2: TTTTTTTATTTTTATTTTTATTTTTTTTTATTTGTT
B29: XGTACX_negctrl_site343 (dsDNA)
DNA 1: AATAAATAAAAAAAAAAAAAAAAAAAAAAAAAAAAA
DNA 2: TTTTTTTTTTTTTTTTTTTTTTTTTTTTTATTTATT
B30: XGTACX_negctrl_site317 (dsDNA)
DNA 1: TTATATTCTTTTCTCTTTCTACTTTTTTTTTTTTTT
DNA 2: AAAAAAAAAAAAAAGTAGAAAGAGAAAAGAATATAA
B31: XGTACX_negctrl_site600 (dsDNA)
DNA 1: TTGAAATATACGTAAGTAAATTTCATTTGGTTGTGT
DNA 2: ACACAACCAAATGAAATTTACTTACGTATATTTCAA
B32: XGTACX_negctrl_site291 (dsDNA)
DNA 1: TTTTTTATATTTAAACTTCACATGGTTTTCATTTAT
DNA 2: ATAAATGAAAACCATGTGAAGTTTAAATATAAAAAA

The binders below were run against T1, AP2-LT D1 (assay: gcPBM; about 25 ug protein; PBS, 1% milk, 0.2 mg/ml BSA, salmon testes DNA, 0.03% Triton X-100). Settings: tags: N-terminal GST (pGEX-4T-1), kept; label: surface-attached array probe.

In order of falling binding signal:
1. B11  10.9 ln median PBM intensity, better of two orientations
2. B4  10.8 ln median PBM intensity, better of two orientations
3. B5  10.8 ln median PBM intensity, better of two orientations
4. B8  10.8 ln median PBM intensity, better of two orientations
5. B9  10.8 ln median PBM intensity, better of two orientations
6. B15  10.8 ln median PBM intensity, better of two orientations
7. B1  10.7 ln median PBM intensity, better of two orientations
8. B2  10.7 ln median PBM intensity, better of two orientations
9. B3  10.7 ln median PBM intensity, better of two orientations
10. B6  10.7 ln median PBM intensity, better of two orientations
11. B7  10.7 ln median PBM intensity, better of two orientations
12. B10  10.7 ln median PBM intensity, better of two orientations
13. B12  10.7 ln median PBM intensity, better of two orientations
14. B13  10.7 ln median PBM intensity, better of two orientations
15. B14  10.7 ln median PBM intensity, better of two orientations

The binders below were run against T2, AP2-G D1 in the same assay as above. Settings: tags: N-terminal GST (pGEX-4T-1), kept; label: surface-attached array probe.

In order of falling binding signal:
1. B16  9.88 ln median PBM intensity, better of two orientations
2. B21  9.88 ln median PBM intensity, better of two orientations
3. B22  9.88 ln median PBM intensity, better of two orientations
4. B26  9.88 ln median PBM intensity, better of two orientations
5. B27  9.88 ln median PBM intensity, better of two orientations
6. B20  9.87 ln median PBM intensity, better of two orientations
7. B25  9.86 ln median PBM intensity, better of two orientations
8. B18  9.85 ln median PBM intensity, better of two orientations
9. B19  9.85 ln median PBM intensity, better of two orientations
10. B24  9.85 ln median PBM intensity, better of two orientations
11. B28  9.85 ln median PBM intensity, better of two orientations
12. B29  9.85 ln median PBM intensity, better of two orientations
13. B30  9.85 ln median PBM intensity, better of two orientations
14. B32  9.85 ln median PBM intensity, better of two orientations
15. B17  9.84 ln median PBM intensity, better of two orientations
16. B23  9.84 ln median PBM intensity, better of two orientations
17. B31  9.84 ln median PBM intensity, better of two orientations
